Reference: patent publication US20230348614A1 (VISTERRA, published 2023)

T1: CD138 on the surface of U266 cells (CD138+ human lymphoblastic myeloma cell line) (human, UniProt P18827 23-310)
T1 construct: whole, on cells; also called cell surface CD138; membrane CD138
T1 sequence (looked up): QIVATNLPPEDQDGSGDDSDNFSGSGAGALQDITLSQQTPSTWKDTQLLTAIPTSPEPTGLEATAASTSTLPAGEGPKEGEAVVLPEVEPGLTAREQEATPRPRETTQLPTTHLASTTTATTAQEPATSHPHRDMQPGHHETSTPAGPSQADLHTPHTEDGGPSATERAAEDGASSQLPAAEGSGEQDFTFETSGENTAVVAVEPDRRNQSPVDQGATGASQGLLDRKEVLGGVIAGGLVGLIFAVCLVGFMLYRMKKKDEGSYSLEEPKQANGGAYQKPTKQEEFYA

T2: Recombinant soluble human CD138 extracellular domain (analyte in SPR) (human, UniProt P18827 23-254)
T2 construct: extracellular domain; also called recombinant CD138 (the antigen)
T2 sequence (looked up): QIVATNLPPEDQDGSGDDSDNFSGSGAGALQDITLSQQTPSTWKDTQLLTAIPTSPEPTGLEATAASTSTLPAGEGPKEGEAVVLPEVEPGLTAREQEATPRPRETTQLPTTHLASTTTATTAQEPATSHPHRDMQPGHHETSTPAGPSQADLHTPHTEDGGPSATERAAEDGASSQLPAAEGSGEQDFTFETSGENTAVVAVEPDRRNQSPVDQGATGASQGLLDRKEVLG

T3: Biotinylated recombinant soluble human CD138 extracellular domain (Sino Biological, Cat. 11429-H08H) (human, UniProt P18827 18-251, biotin (EZ-Link NHS-SS-PEG4 Biotin) on primary amino groups of lysines, protein:biotin 1:20)
T3 construct: range 18-251; Bought reagent; The limits are printed as approximate; also called biotinylated CD138; recombinant CD138
T3 sequence (looked up): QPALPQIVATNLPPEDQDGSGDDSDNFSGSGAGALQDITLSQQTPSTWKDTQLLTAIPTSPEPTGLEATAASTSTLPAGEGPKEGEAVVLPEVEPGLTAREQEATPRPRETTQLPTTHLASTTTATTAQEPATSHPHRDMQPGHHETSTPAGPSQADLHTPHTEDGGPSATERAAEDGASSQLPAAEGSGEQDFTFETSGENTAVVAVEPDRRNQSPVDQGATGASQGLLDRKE


Legend:
[1] = molecular target: T1, CD138 on the surface of U266 cells …; assay: flow cytometry on U266 cells at pH 6.0, MFI against antibody concentration (0.04-10 ug/mL shown)
Protocol: (§1) Antibody binding to membrane CD138 was evaluated using the CD138+ human lymphoblastic myeloma cell line (U266) and quantified by flow cytometry. Cells were grown in RPMI1640 with 10% FBS. […] Cells were washed (1X) with same pH-matched buffer (and as throughout the experiment) followed by incubation with secondary (detection) goat anti-human Fab( Jackson Immuno Research) conjugated with Alexa Fluor-488 for 30 minutes also at either pH 6.0 or 7.4. Cells were washed once more and resuspended in matching pH buffer and evaluated by flow cytometry. Antibody cell binding was reported as geometric mean fluorescence intensity (MFI). Dose-response curves were generated using GraphPad Prism. Binding data were plotted using nonlinear regression analysis and a 4-parameter curve fit.

[2] = molecular target: T1, CD138 on the surface of U266 cells …; assay: flow cytometry on U266 cells at pH 6.5, MFI against antibody concentration (about 0.03-30 ug/mL)
[3] = molecular target: T2, Recombinant soluble human CD138 …; assay: SPR (Carterra LSA): antibody captured by anti-human IgG, CD138 as analyte, pH 6.0, 1:1 fit; pH 6.0, SPR
Excerpt: (§2) This method as described, immobilizes the target (recombinant CD138) through biotinylation-streptavidin capture. Such a method may, in principle, lead to biases in binding due to either chemical modification of the capture ligand and/or avidity effects due to immobilization of this ligand on the biosensor. Moreover, this method depends on diffusion-based principles of dissociation leading to non-equilibrium binding states. Surface plasmon resonance is an orthogonal, commonly used method for determining binding kinetics and deriving affinity values based on these parameters. In this method, antibodies were directly coupled to the sensor chip and probed with several concentrations of recombinant CD138 (the antigen) varying from 100 nM to 41 nM. This evaluation was completed under two different pH conditions, i.e., pH 6.0 and pH […].
(§3) Antibody-CD138 binding was evaluated on a Carterra LSA high throughput SPR instrument. Binding experiments were carried out using binding buffer comprising 100 mM sodium phosphate, 150 mM NaCl and 0.05% Tween-20 buffer. Buffers were adjusted to target pH of 7.4 and 6.0, by use of sodium hydroxide or HCL, respectively. All steps were also carried out independently at these respective buffer pHs. Antibodies were captured on the SPR (CMDP) chip using an anti-human IgG covalently coupled to the CMDP chip based on standard protocols, as described by the instrument manufacturer, and to create a uniform lawn on the chip surface at a target 25 nM anti-CD138 antibody concentration. Binding to CD138 was achieved by uniformly passing binding analyte with increasing concentrations of CD138 (41 nM-100 nM) for 15 minutes and allowing dissociation for 20 minutes. Analyte was flowed over the chip at a rate of 2 milliliters/minute. Raw binding data were processed using kinetics data analysis software also provided by the manufacturer (Carterra) following as 2X background subtraction that used the first six injections of buffer blanks and the internal machine reference controls. Kinetic data was analysed using a global fit and assuming a 1:1 binding interaction. Further analysis of individual binding curves (sensorgrams) with best fits were used to refine the calculation of kinetic parameters.

[4] = molecular target: T1, CD138 on the surface of U266 cells …; assay: flow cytometry on U266 cells at pH 6, MFI against antibody concentration (about 0.03-30 ug/mL)
Protocol: as §1
(§4) Binding was evaluated as described.

[5] = molecular target: T3, Biotinylated recombinant soluble human …; assay: BLI (Octet): biotinylated CD138 (10 nM) on streptavidin tips, antibody 12.5 and 25 nM, pH 6.0, 1:1 fit; pH 6.0
Protocol: (§5) Binding experiments were carried using assay buffer comprised of 100 mM Sodium Phosphate+ 150 mM NaCl + 0.02% Tween-20 and adjusted to target pH of 7.4, 6.0, 6.4, or 6 using appropriate ratios of monobasic and dibasic sodium phosphate buffer. 25 nM biotinylated CD138 was loaded onto Streptavidin capture Octet (SA) tips for 120 seconds (antigen loading step) followed by antibody binding for associated for 300 seconds (association step), and subsequently dissociation for 300 seconds (dissociation step). All steps were carried out at the respective target pH using the corresponding pH adjusted buffers.
(§6) Modifications to this protocol included lowering the loading concentration of biotinylated CD138 from 25 nM to 10 nM and varying the test antibody concentrations ranging from 25 nM down to 0.8 nM (as 2-fold dilutions). The rationale for doing so was to potentially reduce any target avidity effects while also looking at the analyte concentration dependency.
(§7) Data were analyzed for purposes of calculating approximate kinetic binding parameters and apparent binding affinities based on these rates. Data was fit assuming a 1:1 binding model.

[6] = molecular target: T1, CD138 on the surface of U266 cells …; assay: flow cytometry on U266 cells at pH 6.0, MFI against antibody concentration (0.01-10 ug/mL)
Protocol: as §1

[7] = molecular target: T3, Biotinylated recombinant soluble human …; assay: BLI (Octet): biotinylated CD138 (10 nM) on streptavidin tips, antibody 12.5 and 25 nM, pH 6.0, 1:1 fit
Protocol: as §5, §6, §7

[8] = molecular target: T2, Recombinant soluble human CD138 …; assay: SPR (Carterra LSA): antibody captured by anti-human IgG, CD138 as analyte, pH 7.4, 1:1 fit
Excerpt: as §2, §3

[9] = molecular target: T2, Recombinant soluble human CD138 …; assay: SPR (Carterra LSA): antibody captured by anti-human IgG, CD138 as analyte, pH 6.0, 1:1 fit
Excerpt: as §2
Antibody-CD138 binding was evaluated on a Carterra LSA high throughput SPR instrument. Binding experiments were carried out using binding buffer comprising 100 mM sodium phosphate, 150 mM NaCl and 0.05% Tween-20 buffer. Buffers were adjusted to target pH of 7.4 and 6.0, by use of sodium hydroxide or HCL, respectively. All steps were also carried out independently at these respective buffer pHs. […] Kinetic data was analysed using a global fit and assuming a 1:1 binding interaction. […]

[10] = molecular target: T1, CD138 on the surface of U266 cells …; assay: flow cytometry on U266 cells at pH 7, MFI against antibody concentration (about 0.03-30 ug/mL)
Protocol: as §1, §4

[11] = molecular target: T1, CD138 on the surface of U266 cells …; assay: flow cytometry on U266 cells at pH 7.4, MFI against antibody concentration (about 0.03-30 ug/mL)
Protocol: as §1, §4

| Binder | EC50 (read off the curve) [1] | EC50 (read off the curve) [2] | Kd [3] | koff [3] | kon [3] | EC50 (read off the curve) [4] | Kd [5] | koff [5] | kon [5] | EC50 (read off the curve) [6] | Kd [7] | koff [7] | kon [7] | Kd [8] | koff [8] | kon [8] | koff [9] | kon [9] | EC50 (read off the curve) [10] | EC50 (read off the curve) [11] |
| --- | --- | --- | --- | --- | --- | --- | --- | --- | --- | --- | --- | --- | --- | --- | --- | --- | --- | --- | --- | --- |
| Antibody 29-0 (antibody, V domains shown, also called mAb 29-0) VH: EVQLVQSGAEVKKPGASVKVSCKASGYSFSSYYMHWVRQAPGQGLEWMGTIYPGASTTNYNQKFQGRVTMTVDTSTRTAYMELSSLRSEDTAVYYCADFVYWGQGTTVTVSS VL: DIVMTQTPLSLSVTPGQPASISCKSSKSLLYKDGKTYLNWFLQKPGQSPQLLIYVVSTRASGVPDRFSGSGSGTDFTLKISRVEAEDVGVYYCQQLVEYPYTFGQGTKLEIK | ~0.6 µg/mL | ~0.9 µg/mL | 28 nM | 0.0042 s⁻¹ | 150000 M⁻¹ s⁻¹ | ~0.6 µg/mL | – | – | – | – | – | – | – | – | – | – | – | – | – | – |
| Antibody Ab17 (antibody, V domains shown, also called mAb 17; Mab 17) VH: EVQLVQSGAEVKKPGASVKVSCKASGYSFSSYYMHWVRQAPGQGLEWMGTIHPSDSTTNYNQKFQGRVTMTVDTSTRTAYMELSSLRSEDTAVYYCADFVYWGQGTTVTVSS VL: DIVMTQTPLSLSVTPGQPASISCKSSKSLLYKDGHTYLNWFLQKPGQSPQLLIYVVSTRASGVPDRFSGSGSGTDFTLKISRVEAEDVGVYYCQQLVEYPYTFGQGTKLEIK | – | – | 16 nM | 0.0026 s⁻¹ | 170000 M⁻¹ s⁻¹ | – | 6.2 nM | 0.0051 s⁻¹ | 860000 M⁻¹ s⁻¹ | ~0.5 µg/mL | – | – | – | – | – | – | – | – | – | – |
| Antibody Ab28 (antibody, V domains shown, also called Mab 28) VH: EVQLVQSGAEVKKPGASVKVSCKASGYSFSSYYMHWVRQAPGQGLEWMGTIYPGDSTTNYNQKFQGRVTMTVDTSTRTAYMELSSLRSEDTAVYYCADFVYWGQGTTVTVSS VL: DIVMTQTPLSLSVTPGQPASISCKSSKSLLYKDGKTYLNWFLQKPGQSPQLLIYVVSTRASGVPDRFSGSGSGTDFTLKISRVEAEDVGVYYCQQLVEYPYTFGQGTKLEIK | – | ~0.8 µg/mL | 12 nM | 0.0026 s⁻¹ | 220000 M⁻¹ s⁻¹ | ~0.5 µg/mL | 4 nM | 0.0045 s⁻¹ | 1.2e+06 M⁻¹ s⁻¹ | ~0.7 µg/mL | – | – | – | – | – | – | – | – | – | – |

The remaining lines, values ahead:

| EC50 (read off the curve) [1] | EC50 (read off the curve) [2] | Kd [3] | koff [3] | kon [3] | EC50 (read off the curve) [4] | Kd [5] | koff [5] | kon [5] | EC50 (read off the curve) [6] | Kd [7] | koff [7] | kon [7] | Kd [8] | koff [8] | kon [8] | koff [9] | kon [9] | EC50 (read off the curve) [10] | EC50 (read off the curve) [11] | Binder |
| --- | --- | --- | --- | --- | --- | --- | --- | --- | --- | --- | --- | --- | --- | --- | --- | --- | --- | --- | --- | --- |
| – | – | – | – | – | – | – | – | – | – | 0.98 nM | 0.0011 s⁻¹ | 1.2e+06 M⁻¹ s⁻¹ | 21 nM | 0.00028 s⁻¹ | 10000 M⁻¹ s⁻¹ | 0.0018 s⁻¹ | 300000 M⁻¹ s⁻¹ | – | – | Antibody Ab71 (antibody, V domains shown) VH: QVQLVQSGAEVKKPGASVKVSCKASGYSFSSYYMHWVRQAPGQGLEWMGDIHPSDSTTNYNQKFQGRVTMTVDTSTRTAYMELSSLRSEDTAVYYCANFVYWGQGTTVTVSS VL: DIVMTQTPLSLSVTPGQPASISCKSSKSLLYKDGKTYLNWFLQKPGQSPQLLIYVVSTRASGVPDRFSGSGSGTDFTLKISRVEAEDVGVYYCQQLVEYPYTFGQGTKLEIK |
| – | ~0.7 µg/mL | – | – | – | ~0.6 µg/mL | – | – | – | ~0.5 µg/mL | 6.5 nM | 0.0041 s⁻¹ | 630000 M⁻¹ s⁻¹ | – | – | – | – | – | ~0.9 µg/mL | ~1 µg/mL | Antibody Ab43 (antibody, V domains shown) VH: EVQLVQSGAEVKKPGASVKVSCKASGYSFSSYYMHWVRQAPGQGLEWMGTIHPSDSTTNYNQKFQGRVTMTVDTSTRTAYMELSSLRSEDTAVYYCADFVYWGQGTTVTVSS VL: DIVMTQTPLSLSVTPGQPASISCKSSKSLLYKDGKTYLLWFLQKPGQSPQLLIYVVSTRASGVPDRFSGSGSGTDFTLKISRVEAEDVGVYYCQQLVEYPYTFGQGTKLEIK |
| – | ~0.7 µg/mL | 16 nM | 0.0029 s⁻¹ | 180000 M⁻¹ s⁻¹ | ~0.4 µg/mL | 2.9 nM | 0.003 s⁻¹ | 1e+06 M⁻¹ s⁻¹ | – | – | – | – | – | – | – | – | – | – | – | Antibody Ab137 (antibody, V domains shown) VH: QVQLVQSGAEVKKPGASVKVSCKASGYSFSSYYMHWVRQAPGQGLEWMGTIHPSDSTTNYNQKFQGRVTMTVDTSTRTAYMELSSLRSEDTAVYYCANFVYWGQGTTVTVSS VL: DIVMTQTPLSLSVTPGQPASISCKSSKSLLYKDGKTYLNWFLQKPGQSPQLLIDVVSTRASGVPDRFSGSGSGTDFTLKISRVEAEDVGVYYCQQLVEYPYTFGQGTKLEIK |
